Consider 16 sequences from the DeepSol protein solubility set.

The series is described as follows: soluble on expression in E. coli; label from the status in PepcDB or PDB records.
On to “MGSDKIHHHHHHMKKIAVLTSGGDAPGMNAAVRAVVRYGVRQGLEVIGVRRGYSGLIDGDFVKLEYKDVAGITEKGGTILRTSRCEEFKTEEGRELAAKQIKKHGIEGLVVIGGEGSLTGAHLLYEEHKIPVVGIPATIDNDIGLTDMCIGVDTCLNTVMDAVQKLKDTASSHERAFIVEVMGRHSGYIALMAGLVTGAEAIIVPEIPVDYSQLADRILEERRRGKINSIIIVAEGAASAYTVARHLEYRIGYETRITILGHVQRGGSPTAFDRRLALSMGVEAVDALLDGEVDVMIALQGNKFVRVPIMEALSTKKTIDKKLYEIAHMLS”, for which the “soluble on expression in E. coli” value is “not soluble”.

In the case of “MGSDKIHHHHHHMSEVSKWPAINPFHWGYNGTVSHIVGENGSIKLHLKDNKEQVDFDEFANKYVPTLKNGAQFKLSPYLFTGILQTLYLGAADFSKKFPVFYGREIVKFSDGGVCTADWLIDSWKKDYEFDQSTTSFDKKKFDKDEKATHPEGWPRLQPRTRYLKDNELEELREVDLPLVVILHGLAGGSHEPIIRSLAENLSRSGRFQVVVLNTRGCARSKITTRNLFTAYHTMDIREFLQREKQRHPDRKLYAVGCSFGATMLANYLGEEGDKSPLSAAATLCNPWDLLLSAIRMSQDWWSRTLFSKNIAQFLTRTVQVNMGELGVPNGSLPDHPPTVKNPSFYMFTPENLIKAKSFKSTREFDEVYTAPALGFPNAMEYYKAASSINRVDTIRVPTLVINSRDDPVVGPDQPYSIVEKNPRILYCRTDLGGHLAYLDKDNNSWATKAIAEFFTKFDELVV”, the “soluble on expression in E. coli” value is given as “not soluble”.

For “MAHHHHHHMPSMTSLLHKSLVVCFTSRISIFTSRPARGTAASAQLSLSSVPTAEHLECWTRQGDCVVGREEVACASCLGGYLAAGTISGLVLLYFCGAAESLVKELVRFNVGYGVTGMQLLPNDTLLVVTSVGDVWRWPLCDLLRNADASGAEGEKDEATEAEPTAAAHQPPLPLAAPRVPAAPSPQDKTLHTEPRVPATPEEVSYTQEGDTEDRSFSAHDTSTLAHTPQREREATARVEEIVTAVRVGADVPLVGARSDAEEQGTPSVHLSTASASLRALSASSENDGDEDHPDERGNDNTDMDARRAEPATVSCLPPPPPLASPTVSDKFEEKRGVGGVTRCATEFQRRTLYDPEQSTEEPGVVDMGVPSSAAGNSADLSHDGLRIAVSPPSTADNTAHHDAVLEDSGADVPEVAARGSAAGAAAVAAKEGTISDKHIQPFQRNHGDLSDTADVAQGTAHSSPGITSRQGTGMKAAVDDLEHEFAHAMKRLLGPTVGVEGLRKDRRMNPRKVAGVLANLTNQQAAAAGAKGLSYEAPSQPRALEGPNSTKLLEEKRTTLEAAVFDFEAYRQAHRLEVDALQYHHPVPAPTYTLQDRVFDAVESAGRLCDKEAGRATGAAGNAAATLPAAPEDELRDVTYGKVKWTLDPQIAEERRRGGPEMAQHHCDHLIFSTPYPAKATVLFAEEAPLMPSTAWEEVLLLPLPLPPAPSVF”, the “soluble on expression in E. coli” value is given as “soluble”.

On to “GPGSMRSLVVHLLSYTQRFASAKPTILYVPQKTLIAEQVMEDEFKLSHTFPSLRIASLDLDYVFLEEKFFTMTLPLSFKSVFADGDLSNLTWIARLLLKLQTARFGAIRHIRGKGSNAAKVIQLLQRMQNNISHDFITDIPSEVETLIIIDRSVDFVTPLMTQLTYEGLIDELYDIENCEVQFPFSLGESSGVGASEKVVLNSTDRMFAEIRDRSFTGVGSVLYQKSIWVKQNYDKRKEVQQLKELKEFMKGLPEMQEMHRLIGIHTNVATEISKTTQRTDFRKRIMFEHNIIQQTNEGDVLRYIEDLVFRKEKFEVVLRLLALLSLVNSGLREKDLLGLKENMMLVYGIPHVITAFFMLERCGLLCAQSGKGSSYSTIRKQLRTWNSSVPEGQPNDIAYAYGGYAPPFVRMVDTLLRNPQAWDAEDDAPSLLPGEKKELMNDVEIAGTTKTAIVFVIGGITASEVSALRFVEERLSSGGRPHRIFIGTTDIISGNRMIRSLLPFEPAR”, for which the “soluble on expression in E. coli” value is listed as “not soluble”.

Consider “ISVDTLNTKELIEAINLGADMILSVDAGNLDELIPYLKDSETAVVVLPTNYKTNYVPETIEGKIKSLEENIKKLIDAGIEKIVADPILEPINNAGCSFIESVIACREFKKRNKLPLFFGVGNVTELFDADSNGVNALLAAIGAEIGANILFTPEASAKCKFSIKELKIASKMMFLAKKRNSLPKDIGYNLINYKDKRFEEEITFNSYNIPIIKAEEDERQILDEGSFKIEIDRKNKEIVAIYFNKRREPVLIIRGKKPKEIYETAIRLNLIKKLDHASYFGRELAKAEIALRIGKKYNQDFDLF”, for which the “soluble on expression in E. coli” value is listed as “not soluble”.

As for “MGSDKIHHHHHHLIYIYYPELRLFNGDEITQKFVKGEVVEAHEVLRLKHSIATYRSRLCDISWFMRCLNEPIARQANQEDSCTGRFWEGRFKSQALLDEAAVLACMAYVDLNPIRAKMASTPEQSDHTSIQLRIRAALKGEQPNNLLPFIGNERQFQPKGITFALKDYLELVDDTGRIIRNDKRGSVSANSAKLLTRLNISQENWLKLTTEFGKLFHGPVGTLQELTSYCEHLEKRRRHFASCCQHLKAG”, the “soluble on expression in E. coli” value is given as “not soluble”.

Consider “SLQTNKASTGLKTDQSFNNSLSESVKLKEIADIYPTNTNFLTGIGIVAGLAGKGDSIKQKDLIIKILEENNIINEIGSNNIESKNIALVNVSLQVKGNTIKGSKHKACVASILDSKDLTNGILLKTNLKNKEGEIIAIASGITQPNNKLKGSGYTIDSVIINENQNINHSYNIILKKGNYTLINRIHKILTSKKINNKIKSDSTIEIEAKNISLLEEIENIKIETNPKILIDKKNGIILASENAKIGTFTFSIEKDNQNIFLSKNNKTTIQVNSMKLNEFILKNSNNLSNKELIQIIQAAQKINKLNGELILEEIDGNQN”, for which the “soluble on expression in E. coli” value is reported as “soluble”.

For the sequence “MVEKHLLEFLEKLQFLISKNVKISHYGIENVKKICGVDIAYKGNLGFSVGVSMDINSGDYNYKSYVGEVNFPYIPGFLFMREAPLMIKAIEGLDCHLLLVDGHGIAHPRKSGIAAVIGVLLDFPTIGVAKSRLTGDLVNESEITYVYLNGEKVGVKFGRYFYSPGNKVDLQDCIELGKRGYPKVLKIADMLTKKIKKE”, the “soluble on expression in E. coli” value is “soluble”.

As to “MSLGYKQIRDVSVLCDFAANCTLSLNPGTGENAPGIGLYRSSKADSIPELRLSFSEQMPKTGKLEILVDGKPELDTNIAALKVRNNELVYVDEAGVAKLIGAMKNGQKLQLKLADKVSGYSLSGFVGGLIYLDEQQARDGTVAALQVKGTKPAPAAPDITLIETVEQIPEGIRKDFSDDAATCGGASPESFRLAGGFVTKIADGLNLVGLPCGAPGAYNQPYVFYSRYENRIVPVSLPVISDDGPTTTDSAWNIDWNNRTRTLTGFFKGRGIGDCGTYDVWKAVDSGEGRVSFVLKEERAKGDCDGNYAGGPQNWPASWPPKTKEGHHHHHH”, the “soluble on expression in E. coli” value is given as “soluble”.

Consider “VALESATVGSMHERTVRARTATGIVEGFTRDGVHRWRSIPYARAPVGSLRFRAPQPAQPWPGVRHCHTFANCAPQQRRYTVMGIGRYQTRSEDCLTLNVVTPEEPATQPLPVMVFIHGGGYILGSSATPIYDGAALARRGCVYVSVNYRLGALGCLDLSSLSTPQITLDSNVYLRDLVLALRWVHDNIAEFGGDPGNVTIFGESAGAHITATLLAVPAAKGLFARAISESPAAGMVRSREVAAEFAARFANLIGARTQDAANALMQASPAQLVEAQHHLIRQGMRKRLGAFPIGPVFGDDYLPMDPVEAMRSGRVHAVPLIVGTNAEEGRLFTRFLGMLPTNEPMVEELLSGMKPADRERITAAYPNYPAPSACIQLGGDFAFSSAAWQIAEAHGANAPTYLYRYDYAPRTLRWSGFGATHATELFAVFDIYRTRFGALLTAAADRRAALRVSNEVQRRWRCFSQIGVPGDDWPAYTQDDRAVLVFDRRCRIEFDPHQHRRIAWDGFSLAN”, for which the “soluble on expression in E. coli” value is given as “not soluble”.

Regarding “MMPRMGPPAAARQDNPLHVSFRNPQWPPNFINKDNVLDYFCNQANAFYEMNSCNQQIRMQNIVNRTVEECLRTMPGIQYVLWYSQPPLFIICKQRRNNVTNVSPIAYYYVINGSVHQAPDMYSLVQSRLLGALEPLRNAFGEVTNYSRYNTAKGYYWEFKNKPNVKKREEEKKEDEEEKLEDRSTNFQKTRTMMLLNQLFSEMPAEDALEREEKEEVEEEEEETLKTEEPTTSTDEPKFAEPTARTTSKQ”, the “soluble on expression in E. coli” value was “not soluble”.

Turning to “MGSDKIHHHHHHMYYEKAVQKTINWIESHLHEQISNEDIVNVSSFSKFHFHRIFQKEVGMSVASYIRLRRLANAAAALLYTDHRIIDIALYYQFESQEAFTRTFKKMYHMPPGAYRTFMKRFTSKKEESYMEKKMKGWVLSGSHPFQFEMGIDRENVHQGKASGYLKSTMVQDIGEFATMMQQFKADRYLGKRLRLSSFIKTKGVQHFASLWMRVDSAADDVLQFDNMSNRPITGTTNWNHYAIVLDVPENSAVISFGVQLSGPGQVWMDHVVFEEVDESVPSTNLEMPGELLDEPVNLSFEEELQK”, the “soluble on expression in E. coli” value is given as “not soluble”.

On to “MSYDICIIGSGAGASPIAHQLSKAGAKVLVLEKGPWLTEKEFFKDELTISIHDAYNPKLTDEQHVIEEEYFDENDKPFWQGEKTSDSGWSWWNGNVVGGSSNFMSGYFHRLKPIDFRLKSEFGAISGANVEDWPISYDELEPYYAKVEREVGVSGRVVEHPHQEPRSTDFPYPPIAELPMSSWIDKAAQKIGYHAIPVPRAILSKPAMGRRSCEYSGYCSSYGCASGAKGSGRAALLNNAVASGNCTIQANAKVYKIATDKQGEITGVHYYDKIGRKKSVTAKIYVVACQAVETSRLLLASTGEKFPQGLANNNGQVGKNLLFSGGGTGQGDFNYADLSDKQVGELKQVGPFINRALQDWYQIADKSFTGANAKGQAKGGTIDFLFHQNPIARARGTQWGSDQNGDDKLLWGEDLKQSLKTEFTSYKTLRFEVFNDWLPTDDCFVSLDNEVTDQWGDPVAKVRIGYHDHDLEVGEYLSKKAEKLLEALGAKNVSSSVSGYPSTNLMAGGCRFGNDPKTSVLNKTCQAHEVDNLYVTDGSFMPTGGSVPYTFTIYANAFRVADKIKAHWLTLKSLEHHHHHH”, for which the “soluble on expression in E. coli” value is given as “not soluble”.

For “SNAMIYPDETMLYAPVEWHDCSEGYTDIRYEKSTDGIAKITINRPQVRNAFRPLTVKEMIQALADARYDDNVGVIILTGEGDKAFCAGGDQKVRGDYGGYQDDSGVHHLNVLDFQRQIRTCPKPVVAMVAGYSIGGGHVLHMMCDLTIAAENAIFGQTGPKVGSFDGGWGASYMARIVGQKKAREIWFLCRQYDAQQALDMGLVNTVVPLADLEKETVRWCREMLQNSPMALRCLKAALNADCDGQAGLQELAGNATMLFYMTEEGQEGRNAFNQKRQPDFSKFKRNP”, the “soluble on expression in E. coli” value is on record as “soluble”.

For the sequence “MASEALHQVGDGEEAVLKKENFNMMNALDQLPKPFPNPKSMNRTVTTKGLPLASKGNLVNFLEDDTINLLKPLPVEDSDCSSDETSISAFSSTLLNPIKLAVTQPNSSFFAGMLEGELNKLSFSPMAKNAENEDLALGPCPCPSKSQMATRGLLDLDNPELETETSSTHSESSVVVDLPDTPFIFEHTVNNSTAVISWTYALGKQPVSFYQLLLQEVAKTQENELPEAKNRPWIFNKILGTTVKLMELKPNTCYCLSVRAANTAGVGKWCKPYKFATLATDFSSFPENYPIQITVRRKEPRQKIVSIGPEEMRRLEDLEYLFPC”, the “soluble on expression in E. coli” value was “soluble”.

“MKQLSGLLGELRQKLCAGFPEQAGIQQLIFPAPGLVGRQLLEWLTAQTHFPQFYWRHRDNHEEAAVCGQTRSFADMKDADDFIQQNPDANGLRIWGLNAFEPVMVFGQLTDNGLVSGKNAQASFLFLPRLEILRRGKKTSLTLNLSSETSLQKDALQAITFIDQLMAARALPVLNARIQHSSHTPGYPQWRNLIQQALNDIEQQKLDKVVLARTTTLTLNKPLSCAAFMAASRQVNHRCYHFMLRFDDRQAFLGSSPERLYLRQQLHLETEALAGTVSNLDSDPQAAVLADWLMHDEKNQRENLLVVDDICQRLQGGVTAVDVMPPEIIRLRKVQHLRRRICAQLSRASDTDCLQRLQPTAAVAGLPREAARQFIAKHELFSRGWYAGSAGYLSLKRTEFSVALRSARVDGQQIHLYAGAGIVAGSDAEQEWQEIDNKSAGLQSLLEHEAQPVKA”: the “soluble on expression in E. coli” value is recorded as “not soluble”.
